Tests used:
MS2 coat protein [1] = experiment: apparent KD of MS2 coat protein, switch ON state; designed switch direction (-1 OFF switch, 1 ON switch): -1; higher = weaker reporter binding; conditions: FMN input: 0 or 200 uM; Eterna round: R93 (includes R88 designs)
In short: (§1)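 For every design, apparent KD is the median of normalised binding-curve fits from its clusters. The RNA switches were transcribed on-chip from Illumina sequencing clusters and titrated with SNAP-549-labelled MS2 coat protein (twofold steps, 0.7 or 1.5 nM to 3 µM; 0.8–1.5 h to 10–20 min per step). Titrations used 100 mM Tris-HCl pH 7.5, 80 mM KCl, 4 mM MgCl2, without or with constant ligand.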

MS2 coat protein [2] = experiment: apparent KD of MS2 coat protein, switch OFF state (with FMN for OFF switches, without FMN for ON switches); designed switch direction (-1 OFF switch, 1 ON switch): -1; higher = weaker reporter binding; conditions: FMN input: 0 or 200 uM; Eterna round: R93 (includes R88 designs)
In short: as §1

MS2 coat protein [3] = experiment: apparent KD of MS2 coat protein; designed switch direction (-1 OFF switch, 1 ON switch): 1; higher = weaker reporter binding
In short: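 SNAP-549-labelled MS2 coat protein was titrated, doubling from 0.7 or 1.5 nM to 3 µM, over designed RNA switches transcribed on Illumina chips by stalled E. coli RNA polymerase. Runs were done without input, with 200 uM small-molecule ligand, or with an oligonucleotide input. Apparent KD is the per-design median over clusters of curve-fitted normalised fluorescence.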

[4] = Eterna round: R95, input ligand: FMN 200 uM
[5] = Eterna round: R95, input ligand: microRNA oligo, concentration not stated
[6] = Eterna round: R95, input ligand: none
[7] = input ligand: microRNA oligo, concentration not stated

Sequence | apparent KD of MS2 coat protein (MS2 coat protein [3]; input ligand: FMN 200 uM) [nM] | apparent KD of MS2 coat protein (MS2 coat protein [3]; [7]) [nM] | apparent KD of MS2 coat protein (MS2 coat protein [3]; input ligand: none) [nM] | other results
AACAAGUGAGGAUAUCGGAAAUGUAAAUAAGUUUCACAAAACGAGAAGGCACAUGAGGAUCACCCAUGUAAAUA [JR_Exc004_Sub013] | – | – | – | apparent KD of MS2 coat protein (MS2 coat protein [1]): 32.1 nM; apparent KD of MS2 coat protein (MS2 coat protein [2]): 25.6 nM
GAAAAAGGAGGAUAUACGAACAUGUCAAAAGACGUGAAGGGACAUGAGGAUCACCCAUGUAGAAGGCUUAAAAG [Mat - Exclusion 2 - JL mod - D94] | – | – | – | apparent KD of MS2 coat protein (MS2 coat protein [1]): 37.4 nM; apparent KD of MS2 coat protein (MS2 coat protein [2]): 15.7 nM
AUAAAGUGAGGAUAUGCUAAGAAGUAAAUAGACAAAUAAAUGCAGAAGGCACAUGAGGAUCACCCAUGUAAGAA [Ex 4 Tesla 4] | – | – | – | apparent KD of MS2 coat protein (MS2 coat protein [1]): 35.9 nM; apparent KD of MS2 coat protein (MS2 coat protein [2]): 26.2 nM
AAGAAGUGAGGAUAUGUCUGUGCGAAAAAAAAAAAGUGCAGACAGAAGGCACAUGAGGAUCACCCAUGUAAAAA [Florian 65% 2] | – | – | – | apparent KD of MS2 coat protein (MS2 coat protein [1]): 37.5 nM; apparent KD of MS2 coat protein (MS2 coat protein [2]): 48.1 nM
AACAUACAUGAGGAUCACCCAUGUCAGGAUAUGCCGGGUUAGAAAAAAAAAAAAAAACGUAGAAGGGACAAAAA [Bilbo Confounded 3 - Jieux - Exclusion 1] | – | – | – | apparent KD of MS2 coat protein (MS2 coat protein [1]): 62.4 nM; apparent KD of MS2 coat protein (MS2 coat protein [2]): 62.2 nM
AGGAAGGAGGCUGAGGAUAUCGUAAGGAGGACAUGAGGAUCACCCAUGUGUAUAGGAUUGGAGGACGAGAAGGCAGAGGAGUGGG [JR_SS2_Sub049] (puzzle: Same State 2) | – | – | – | apparent KD of MS2 coat protein (MS2 coat protein [3]; [4]): 49.8 nM; apparent KD of MS2 coat protein (MS2 coat protein [3]; [5]): 25 nM; apparent KD of MS2 coat protein (MS2 coat protein [3]; [6]): 29.4 nM
GUGGAGAAUUAAGGAUAUUGAAUACAUAUGUUUAACAUGAGGAUCACCCAUGUGGGUUGCGGUAUCGAGAAGGUAAAUUACUGG [salish99_SSNG2_r04_033] (Eterna round: R96, puzzle: Same State NG 2) | 126 | 74.3 | 110 | –
AGAUCAUGACGAGGAUAUGGUACAUGAGGAUCACCCAUGUAUGUACCACGACGGAAACGUCGAAUCCAGAAGGCGUCGUGGUCA [Mat - Same State NG 2 - JL mod - D22] (Eterna round: R96, puzzle: Same State NG 2) | 27.7 | 115 | 167 | –
GUUAGGAAUCUAGCAAACAUGAGGAUCACCCAUGUUAGUGGGAAGGAUAUGGUACAGAAACUGUACCAGAAGGUCUUAUUGUUU [Omei SS(NG) 3 AV9] (Eterna round: R96, puzzle: Same State NG 3) | 580 | 403 | 439 | –
GCUCAUAGUAUAUGGGUACAAGCUUUUUGACAUGAGGAUCACCCAUGUACUCGUCUUAUGUGCAGUCCGUAGACUGC [JL-shm-2.21 Brourd mod] (puzzle: Sensor for hsa-mir-208a) | – | – | – | apparent KD of MS2 coat protein (MS2 coat protein [3]; [4]): 104 nM; apparent KD of MS2 coat protein (MS2 coat protein [3]; [5]): 17.3 nM; apparent KD of MS2 coat protein (MS2 coat protein [3]; [6]): 137 nM
GGAGCCAAGGCAGGAUAUUCAUAUUAAAUGACAUGAGGAUCACCCAUGUUGGCCAGAAGGCCAUGGGAGAAGGGCCAUGGCUCG [Xeonanis - 13 mod23] (Eterna round: R96, puzzle: Same State NG 2) | 41.3 | 127 | 166 | –
GUUAUACAUGAGGAUCACCCAUGUCAAUGUAGUCGAGGAUAUGGGCAGCUAUGAGGCGUACUAGAAGGCGAAGAGG [JL-ss1-3.11 ViennaUCT mod] (puzzle: Same State 1) | – | – | – | apparent KD of MS2 coat protein (MS2 coat protein [3]; [4]): 81.6 nM; apparent KD of MS2 coat protein (MS2 coat protein [3]; [5]): 234 nM; apparent KD of MS2 coat protein (MS2 coat protein [3]; [6]): 197 nM
UUUGGGUGGCUGGAGGAUAUUCGAGUGGUUACAUGAGGAUCACCCAUGUGUCGCGCGGUACACGAGGAGAAGGCUGGCGGCCGUU (puzzle: Same State 2) | – | – | – | apparent KD of MS2 coat protein (MS2 coat protein [3]; [5]): 37.7 nM
AGUCCAGCCUGAGCUGGACAAAUGCUUGUACAUGAGGAUCACCCAUGUAUGUACAAGCUUUUUGCUCGUCUUAAUAA [JL zipper 68] (Eterna round: R96, puzzle: Sensor for hsa-mir-208a) | 263 | 18.2 | 223 | –
AAAUAAAACACAGGAUAUGCAGUCAAAACGACGGCAGAAGGGUGAGACAUGAGGAUCACCCAUGUACACAUCCCACGGAUGUGC [Anonised] (Eterna round: R96, puzzle: Same State NG 1) | 1060 | 546 | 1060 | –
UGGUACAUGGGAGGAUAUCUCAUGGUGACAUGAGGAUCACCCAUGUAGUUGGAGCCGAAAGGCUGAGAGAAGGCCCAUGUACCU [JL SSNG1 3.75] (Eterna round: R96, puzzle: Same State NG 2) | 59.4 | 98 | 78.5 | –
UACAAUCUAUCUGAGGAUAUCAUGAACAAAACAUGAGGAUCACCCAUGUGCAGGAAAACUGCAUAUGAGAAGGCAGAUAGAUUGU [Mat - Same State 2 - Mod - D22] (puzzle: Same State 2) | – | – | – | apparent KD of MS2 coat protein (MS2 coat protein [3]; [4]): 51 nM; apparent KD of MS2 coat protein (MS2 coat protein [3]; [5]): 1560 nM; apparent KD of MS2 coat protein (MS2 coat protein [3]; [6]): 876 nM
GGUGCAAUUAACGCCUACAUGAGGAUCACCCAUGUAUGUAGGCAGGAUAUCGUUUGCAAAGCAAACGAGAAGGGCUAUAGUACC [Mat - Same State NG 3 - JL Mod - D43] (Eterna round: R96, puzzle: Same State NG 3) | 66.9 | 256 | 188 | –
GUUACAUGAGGAUCACCCAUGUAUGUGUGGGAGUAAGUGUCUUAGGAUAUCUAUAAUUUAAAUUAAGAGAAGGAAGAUUGUUGU [JMF's solution 10] (Eterna round: R96, puzzle: Same State NG 3) | 121 | 69.4 | 115 | –
UUAAUCUGAACAUGAGGAUCACCCAUGUAUCUUAUUUUAGGACAGGAUAUAGAUGUUAAGAAUUACUAGAAGGGUCAGUAUAUU [JR_SSNG3_Sub011] (Eterna round: R96, puzzle: Same State NG 3) | 19.1 | 20.2 | 25.8 | –
AGGGAGGAUGCAGGAUAUAUAAGACAUGAGGAUCACCCAUGUACCUCGUGGAGAAGAAAGGAGAGAUAGAAGGGUAGAGAGGAA [Default title] (Eterna round: R96, puzzle: Same State NG 2) | 314 | 288 | 255 | –
UUGCGCUGUCGAGAGGAUAUGCGGUGUUGGACAUGAGGAUCACCCAUGUUAGCGAUUGCUUUACGGUAGAAGGCUCUUCAGCUGC [salish99_ss2_r3_098] (Eterna round: R96, puzzle: Same State 2) | 74 | 50.1 | 82.8 | –
CAAUAAUGUGGAGGAUAUGGGAGGUCAACACAUGAGGAUCACCCAUGUAGAUAGUGAGGCCAAGCCUAGAAGGCCACAAUCAGC [Eternabot solution 20] (Eterna round: R96, puzzle: Same State NG 2) | 12.6 | 65.5 | 95.9 | –
UUUAGAGGCGCAGGAUAUGGUGAGGAUCACCCACUAGAAGGGUGCACAUGAGAAUCGGACAUGAGGAUCACCCAUGUUUGGCGC (Eterna round: R96, puzzle: Same State NG 1) | 806 | 554 | 816 | –
CGUAGGUAGCUGGAGGAUAUUCGAGUGGUAACAUGAGGAUCACCCAUGUGGUGAGAGGAACAUGAGGAGAAGGCUAGCUGCCUGC [JL-ss2-3.15 JL mod] (puzzle: Same State 2) | – | – | – | apparent KD of MS2 coat protein (MS2 coat protein [3]; [4]): 118 nM; apparent KD of MS2 coat protein (MS2 coat protein [3]; [5]): 96.2 nM; apparent KD of MS2 coat protein (MS2 coat protein [3]; [6]): 76.9 nM
ACUUAGUACAAUUUAGAUCUACAUGAGGAUCACCCAUGUACUGAGGAUAUCAGCUCGUUUAGAGCUGAGAAGGCAGUAGUACUA [SSNG3/9-A3] (Eterna round: R96, puzzle: Same State NG 3) | 46.7 | 26.2 | 61.9 | –
CUCAAACAUGAGGAUCACCCAUGUGUUGUCAUGGGAGGAUAUCCCAGUUCGGUGACGUCGGGAGAAGGCCUAUGUC [× ×•×ª×• ×ž×“×™× ×” × ×—×ª-15] (puzzle: Same State 1) | – | – | – | apparent KD of MS2 coat protein (MS2 coat protein [3]; [5]): 77.7 nM
GUAAUAAUGUAAGGAUAUACAUGAGGAUUUCUCGUAGAAGGUACAAGACAUGAGGAUCACCCAUGUGUCGCUCAGAAGAGCGUA [Mat - Same State NG 1 - JL mod - D16] (Eterna round: R96, puzzle: Same State NG 1) | 279 | 158 | 463 | –
GCGAGCGUACUUGCAGACAUGAGGAUCACCCAUGUAACUGGACAGGAUAUGGUACCGUUUCGGUACCAGAAGGGUUUACAUGUU [JL SSNG3 3.51] (Eterna round: R96, puzzle: Same State NG 3) | 20.2 | 27.2 | 47.7 | –
UGAACCUUCACAGGAUAUCAUGCGAAAAUUGCGUGAGAAGGGUGGAUGUGGUGUUCAUAGUUGCACAUGAGGAUCACCCAUGUA [SameState NG1 #51] (Eterna round: R96, puzzle: Same State NG 1) | 115 | 124 | 237 | –

Reference: the supplement of paper PMC9170038
